These results are taken from patent publication US20170088585A1.

The target in this assay is Aβ40 (UniProt P05067). As to the kind of experiment: cell-based or functional assay.
Sequence of Aβ40 (P05067 672-711 limits assumed): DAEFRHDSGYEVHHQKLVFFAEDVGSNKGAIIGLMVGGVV

What is called Inhibition is how much of the control response was suppressed. Read a high Inhibition as a response far below the control. Turning to “[lJwHsK]: Cyclo-D-leucine-L-noreucine-D-tryptophan-L-histidine-D-serine-L-lysine (peptide)”, the Inhibition at 1:1 (ThT assay, Aβ:cyclic peptide) stood at 69% and the Inhibition at 1:1/3 (ThT assay, Aβ:cyclic peptide) worked out at 37%.

“[lZwHsK]: Cyclo-D-leucine-L-2-aminooctanoic acid-D-tryptophan-L-histidine-D-serine-L-lysine (peptide)” had an Inhibition at 1:1 (ThT assay, Aβ:cyclic peptide) of 55% and an Inhibition at 1:1/3 (ThT assay, Aβ:cyclic peptide) of 42%.
